Substitutions are numbered along the chain they refer to.
B1: hDLL3-276 camelid-derived humanized anti-DLL3 antibody (antibody, V domains shown)
VH: QVQLVESGGGVVQPGGSLRLSCAASGSTASTTYMGWFRQAPGKGREGVAIIYTARDNPWYADSVKGRFTISRDNSKNTLYLQMNSLRAEDTAVYYCAATLANPTRTAWGQGTLVTVSS
B2: hDLL3-12-1 camelid-derived humanized anti-DLL3 antibody (antibody, V domains shown)
VH: QVQLVESGGGVVQPGRSLRLSCAASGFAFSSYDMHWVRQAPGKGLEWVSSISRDGRGPRYADSVKGRFTISRDNSKNTLYLQMNSLRAEDTAVYYCSKGYPIMGGTTQGTLVTVSS
B3: hDLL3-12-2 camelid-derived humanized anti-DLL3 antibody (antibody, V domains shown)
VH: B2 VH with G44D, L45F
B4: 47E12D12-1 mouse hybridoma-derived anti-DLL3 chimeric antibody (antibody, V domains shown)
VH: EVQLVESGGGLVKPGGSLKLSCAASGFTFSDYGMHWVRQAPEKGLEWVAYISSGSSTIYYADTVKGRFTISRDNAKNTLFLQMTSLRSEDTAMYYCARNSRGFAYWGQGTLVTVSA
VL: DIVLTQSPAIMSASPGEKVTMTCSASSSVSYMYWYQQKPGSSPRLLIYDTSNLASGVPVRFSGSGSGTSYSLTISRMEAEDAATYYCQQWSSYPRTFGGGTKLEIK
B5: 47E12D12-2 mouse hybridoma-derived anti-DLL3 chimeric antibody (antibody, V domains shown)
VH: B4 VH
VL: DIVLIQSPTIMSASPGEKVTMTCSASSSVSSMHWYQQKSGTSPKRWIYDTSKLASGVPARFSGSGSGTSYSLTISTMEAEDAATYYCQQWNSYHLTFGAGTKLELK
B6: 39E2D11-2 mouse hybridoma-derived anti-DLL3 chimeric antibody (antibody, V domains shown)
VH: QVQLKQSGPGLVQPSQSLSITCTVSGFSLTSYGVHWVRQSPGKGLEWLGVIWSGGSTDYNAAFISRLSISKDNPKSQVFFKMNSLQADDTAIYYCARENYYGNSLWFFDVWGTGTTVTVSS
VL: DIVLTQSPATLSVTPGDSVSLSCRASQSINNNLHWYQQKSHESPRLLIKYVSQSISGIPSRFSGSGSGTDFTLTINSVETEDFGMYFCQQTNSWPLTFGAGTKLELK
B7: 40G3D1 mouse hybridoma-derived anti-DLL3 chimeric antibody (antibody, V domains shown)
VH: QVQLQQSGAELVKPGASVKISCKASGYAFSSQWMNWVKQRPGKGLEWIGQIYPGNGDTNYNGKFKGKATLTADKSSSTAYIQLSSLTSEDSAVYFCARWFAYWGQGTLVTVSA
VL: B6 VL with A9V, I29V, N30R, T74S, M85V, T91S

Each binder was assayed against T1, human DLL3 on SHP-77 cells (human, UniProt Q9NYJ7 27-618) (assay: flow cytometry, SHP-77 cells).
T1 construct: also called DLL3-expressing cells (SHP-77)
T1 sequence: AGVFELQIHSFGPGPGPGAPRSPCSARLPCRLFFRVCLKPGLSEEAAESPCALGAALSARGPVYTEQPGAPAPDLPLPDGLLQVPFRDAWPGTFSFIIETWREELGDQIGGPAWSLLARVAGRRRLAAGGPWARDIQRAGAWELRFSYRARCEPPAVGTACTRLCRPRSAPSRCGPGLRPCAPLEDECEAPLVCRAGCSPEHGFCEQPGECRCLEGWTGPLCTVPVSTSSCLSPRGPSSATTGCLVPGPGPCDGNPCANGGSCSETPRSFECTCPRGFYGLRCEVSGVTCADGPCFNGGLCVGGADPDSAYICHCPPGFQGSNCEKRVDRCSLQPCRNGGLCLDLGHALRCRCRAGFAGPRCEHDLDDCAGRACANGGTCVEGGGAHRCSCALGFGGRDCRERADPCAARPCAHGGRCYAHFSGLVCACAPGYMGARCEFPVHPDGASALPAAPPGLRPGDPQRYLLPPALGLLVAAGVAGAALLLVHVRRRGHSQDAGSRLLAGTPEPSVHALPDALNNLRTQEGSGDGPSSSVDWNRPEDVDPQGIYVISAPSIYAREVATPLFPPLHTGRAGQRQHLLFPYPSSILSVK
Method: (§1) SHP-77 and HEK293-cyno DLL3 cells were cultured. The culture medium for SHP-77 cells were RPMI1640+10% FBS, and the culture medium for HEK293 cyno DLL3 cells were DMEM+10% FBS+200 μg/ml Hygromycin. The cells were cultured in a T75 cell culture flask at a 37° C. 5% CO₂ incubator. When using cells, they are washed with sterile DPBS, digested with 0.25% trypsin EDTA for about 5 minutes, and then stopped with a complete medium.
(§2) The digested cells were centrifuged at 1000 rpm for 5 min at room temperature. The supernatant was discarded and the cells were resuspended in 100 μL of 1% BSA (in PBS). The cells were counted and adjusted to a cell density of 1E6/m. The dilute cells were seeded in a 96-well round-bottom culture plate (corning 3799), and centrifuged at 1500 rpm for 5 min at 4° C. The supernatant was discarded and the cells were stored at 4° C. until use. Antibody samples to be tested were diluted with 1% BSA (in PBS) at a starting concentration of 100 nM, downwards by a 10-fold gradient for 7 concentrations. The cells were resuspended with the diluted antibody at 100 μL/well and incubated for 1 hour at 4° C. The cells were centrifuged at 1500 rpm for 5 minutes at 4° C. and the supernatant was discarded. The cells were resuspended and washed with 160 μL of 1% BSA (in PBS), centrifuged at 1500 rpm for 5 minutes at 4° C. The supernatant was discarded. The secondary antibody (goat anti human IgG Fc PE) was diluted 1:200 with 1% BSA (in PBS) according to the manufacturer's instructions and the cells were resuspended with the diluted secondary antibody, 100 μL/well, and incubated for 0.5 h at 4° C. The cells were centrifuged at 1500 rpm for 5 minutes at 4° C. and the supernatant was discarded. The cells were resuspended and washed with 160 μL of 1% BSA (in PBS), centrifuged at 1500 rpm for 5 minutes at 4° C. The supernatant was discarded. The cells were resuspended in 100 μL of 1% BSA (in PBS), and filtered across a 300 mesh gauze. The mean fluorescence intensity of the PE channels was measured by flow cytometry.
(§3) The analyzed mean fluorescence intensity was imported into Graphpad to analyze the median-binding concentration (hereinafter referred to as EC50) of antibody and cell and the top mean fluorescence intensity (Top MFI).

Binder	EC50	Top MFI
B1	0.389 nM	622 MFI
B2	0.052 nM	690 MFI
B3	0.081 nM	804 MFI

Molecular target: T1, human DLL3 on SHP-77 cells
Assay: flow cytometry, SHP-77 cells
Remark: another data set of the same source
Method: as §1, with “DLL3 cells was DMEM+10% FBS+200” for “DLL3 cells were DMEM+10% FBS+200”
as §2, with “antibody.” for “antibody,”, “µL/well,” for “μL/well,”
as §3

Binder	EC50	Top MFI
B4	1.45 nM	178 MFI
B5	69.3 nM	455 MFI
B6	8.63 nM	193 MFI
B7		369 MFI

Molecular target: T2, Cynomolgus monkey DLL3 on HEK293 cells (HEK293-cyno DLL3) (Cynomolgus monkey, UniProt Q9NYJ7 27-618 (human entry))
T2 chain: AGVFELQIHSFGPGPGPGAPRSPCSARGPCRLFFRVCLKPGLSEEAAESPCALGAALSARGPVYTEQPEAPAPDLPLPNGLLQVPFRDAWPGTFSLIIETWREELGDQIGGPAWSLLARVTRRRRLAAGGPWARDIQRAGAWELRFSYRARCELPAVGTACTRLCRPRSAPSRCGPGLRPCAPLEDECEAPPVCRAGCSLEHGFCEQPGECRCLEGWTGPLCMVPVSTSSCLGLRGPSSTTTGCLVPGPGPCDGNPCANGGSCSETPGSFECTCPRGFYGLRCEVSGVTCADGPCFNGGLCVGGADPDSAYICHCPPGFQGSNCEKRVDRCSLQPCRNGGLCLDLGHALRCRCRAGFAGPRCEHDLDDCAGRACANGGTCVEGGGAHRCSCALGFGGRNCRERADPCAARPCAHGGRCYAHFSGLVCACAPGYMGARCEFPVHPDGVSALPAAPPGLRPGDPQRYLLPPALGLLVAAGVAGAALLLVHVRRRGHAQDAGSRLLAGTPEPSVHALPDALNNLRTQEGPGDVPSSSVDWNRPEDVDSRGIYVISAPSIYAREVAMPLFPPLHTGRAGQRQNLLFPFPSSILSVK
Assay: flow cytometry, HEK293-cyno DLL3 cells
Method: as §1, §2, §3

Binder	EC50	Top MFI
B1	1.01 nM	148 MFI
B2	2.36 nM	178 MFI
B3	1.35 nM	190 MFI
